# Experimental data as given in the DeepSol protein solubility set.
# Assay: soluble on expression in E. coli; label from the status in PepcDB or PDB records
row,Sequence,soluble on expression in E. coli
1,MGHHHHHHSHMTSLMDLTLLLARSQPELIEAHTCERIMCCVAQQASEKIDRFRAHAASVFLTLLHFDSPPIPHVPHRGELEKLFPRSDVASVNWSAPSQAFPRITQLLGLPTYRYHVLLGLVVSLGGLTESTIRHSTQSLFEYMKGIQSDPQALGSFSGTLLQIFEDNLLNERVSVPLLKTLDHVLTHGCFDIFTTEEDHPFSVKLLALCKKEIKNSKDIQKLLSGIAVFCEMVQFPGDVRRQALLQLCLLLCHRFPLIRKTTASQVYETLLTYSDVVGADVLDEVVTVLSDTAWDAELAVVREQRNRLCDLLGVPRPQLVPQPGAC,not soluble
2,MSASVSLTTPVSVSCLINDVNPSVKAKKEDATAVTTTQAPKIAEAIHRSTPTLADNVLYDSTSYTHGVTTGSTNVPISSGQRPQQADYSLALLAKDVYAPTSGNLNGFVRLSDERLLAAGIDPTALSDSASGFLAGIYSDNQQYVLSFAGTNDRHDWLSNIRQAVGYEDVQYNEAVALGKTAKMAFGDALVITGHSLGGGLAATAALATGTFAVTFNAAGVAKNTLKRLGMDSAKARRSAENGGIRSYSEKYDLLTGIQELTSLIPNAVGHKIVLANSDKLTGVDDWLPHKHLERRISAHSIEKVLSSMSEQQPWERRYV,not soluble
3,SRGHDATSWINRCLDCFSEGLSFRRQSKRPKMKVHYGDKAKDYDYNARKKQQSEEIDRILDKLKKSGYNSLTTEEKKSLFDASKK,not soluble
4,MAHHHHHHSLNDIVEVEIVDLTHEGAGVAKVDGLVFFVENALPSEKILMRVLKVNKKIGFGKVEKYLVQSPHRNQDLDLAYLRSGIADLGHLSYPEQLKFKTKQVKDSLYKIAGIADVEVAETLGMEHPVKYRNKAQVPVRRVNGVLETGFFRKNSHNLMPLEDFFIQDPVIDQVVVALRDLLRRFDLKPYDEKEQSGLIRNLVVRRGHYSGQIMVVLVTTRPKVFRVDQLIEQVIKQFPEIVSVMQNINDQNTNAIFGKEWRTLYGQDYITDQMLGNDFQIAGLAFYQVNTEMAEKLYQTAIDFAELKKDDVVIDAYSGIGTIGLSVAKHVKEVYGVELIPEAVENSKKNAQLNNISNAHYVCDTAENAMKNWLKDGIQPTVILVDPPRKGLTESFIKASAQTGADRIAYISCNVATMARDIKLYQELGYELKKVQPVDLFPQTHHVETVALLSKLDVDKHISVEIELDEMDLTSAESKATYAQIKEYVWNKFELKVSTLYIAQIKKKCGIELREHYNKSKKDKQIIPQCTPEKEEAIMDALRHFKMIEG,soluble
5,MSLTGELHPIFNADALGASHRLHAHTHGDGTKIVGYYNKHLRLGRFTEQTYKSWHAEVDAKASSILNGSGSLLAFYGDHIIEVVDREGKKITLTVNGGIKQVLWHPLAYLDSCLVVLTGQETIEIYELNEPRYEKPTLVLNEPTSQLGISSRVIDITNIAFAPDGLSLYLFSTSEGGDVHVICPLLPSRIKADRAKWARQWNKATALYSTLTKDTPDDAKVATIEYLEFVTQLLQAIEKNGSDGELVIPEHRRRTISQGPYNIHGFPEKLYSAVGTKLTVVPLGESEAHLLLLSFDDSTNILLFPSTEVLMSWTKDLKNAYTLMLVEEFTATGTAFATCDGVAVLGIDSAQRVEIPYLQALEDCIRDCNLAALQDINFTSSICKIPGKFHSVARFNAPGNKGIILVGDHHAKIVPSTEAAKSDTETELDSQPGKEPTYTVCFPNSLEEILNTNKELQRRKHQPLPLVPPALKNEGHHHHHH,soluble
6,MGNIANEAKLLKLDGKAYRNDFMLGNGKGHARDNLSRQRPGTSKRLSCSQLESLYSSNSMAKNIVDIPAEDLTRNGWSLKMQDDKVKALYESKLRQLKAKERLQQLFTYERLYGDGFVSIGTIEKREYSLSEPLDFENIKSVPYINAFSGKKISNRIIDEDVFSPNYGQIESFEVNNRSNNSRIHLLNNTTYSRATTIHRSRVLHQQNLRFEDELEGSSLLENLYDILTVADTSVWSVGQILYDFIFKVYKSADVRSLTPQDKLEIETKMDYQFRTEAIAIIDKEESLGKESSSVAGIGELLDFVWDYLAGAARMPKTVLKGQEGGTVTGAQYDVMNYYSRITAIQENQLRPHLEYLMRCLMWAEDECGGRLDPDSIEWSVEFNPLWNVDSKTDAEIRKLTAETDKIYIEAGVSDPDDVHEARFGRFGITETSKFNADSLSRDELDKMAAVVYENYKQDRDNEK,not soluble
7,MAHHHHHHMFLIVDAGDMLVEGLFVEANNTTLHYREKFIVKNTDGSMAINAASMTRQLHPRKQMHLHPSSLPIAIHQDNRTPLQHMLRGTHHMQRPTVVSCNTPTMAIMKGTEDVVLRRDTTTRHAGAQFRALQDLLQLKRARAGHTHLTSRSKWIGLDRQKRTPHRF,not soluble
8,MIEMTPDSSVYKALLESTKAIPWKINWQTMAFEYIGPQIEALLGWPQGSWKSVEDWATRMHPEDQEWVVNFCVKQSECGVDHEADYRALHRDGHYVWIRDVVHVVRDDSGEVEALIGFMFDISERKKTLEHHHHHH,soluble
9,MDNGHIEETNNVEIDPATGGAVMSFSYASDFPTLPDAAPASAPTAKQTHVWSRPTLSKSEVNITFRLASDERSNKVKSFGSTSEESKKAQAIATATKTRIELSESKDGELTVVVKGERAKAEEARARIIRDLQTQASREIDIPKDHHGRLIGKEGALLRNLEAETNCRIQIPNRDGPSSKITITGPREGIQRAAAHILAVSEREAKLATEHIVCPKNLVAFVRGPKNETYDRLTQNNGVKINIPPPHVTNEVISVTGEKDGVLRVAAEIRQIIESKKNVSSIQVAVARTQHRYIVGQSRSGIHDVLQKTGCVVEVPAEDSGSDQVTLIGNAQDLAKALALVIERASSVVTQSISAPNWLHKHLIGPKGATLTALVPNRNNVQIEFDNSNQIFLEGSPEEVKLAFEPLSKEVARLQMELAIEKVKVHPTLHRHVIGRGGSLISKIKDQHGVQITIPNEETNSDEIVVEGKKEGVKKAVTEIRAIVTKIENEKSRDIIIPQRLHKLIIGSKGSGVQVIRDSHPNVSVVFPDAKSKSDVVNIRGDKTEVDAVYKKLTALSKEYAENNYQQTVAIFKEFLKHIVGKGGASIRKLRDETETRIDLPESGSDDGKITVTGKQANVEKAVAQLNKIQEELANVAEESIEIPQKVQSRFFGNGRRLISDIEDECGGVHIRFPSEKSESTKVTIRGPAGDVAKAVGLLSALAKDKEENYVEDTVKAKPEFHRFLIGKGGSKIAKLRDTLNVRVMFPKEGDAEKETIHLLGKKEDVPKAKAALEDAIKQLSETVDIKITVDPKYYKNFLARGAALVKEIQEQNGGVVISFPKNGTDSSEVSIRGSKQCVEAAKNRIEDVVEDYEKQITDNVTIPAQFHRGLLAGRGAKIHELQSKYNVSIRFPNNREEGSEGSDQVTVSGRDTKVEEAKEALLAMVPISKVIQLPVDMHRSIIGRGGETVRKLMQDYDVNISIPKDNSSEDITVTGQTENVDQALEALRGKLGEYEAQAEDRKLKQWSMSINVPTDYHQKIIGQRGATITALKEKYGVIINVPREDGNETITIQGYEEKANECAAAIEEMISELRSMFTQEISLDARYHPRLIGQRGKNLKKVMEDYRVEIRLPRQGAEDPNLVVVAGKDENDVYDCIDHLRAEEEEFLLDNVERTQYMSPRQQESNNTRHHQQPTSVQMKGAPWQLDLGSSEQFPDMGPAAGSSAAVGGAGAWGSSRRW,not soluble
10,MEVTDVRLRRVNTEGRMRAIASITLDHEFVVHDIRVIDGNNGLFVAMPSKRTPDGEFRDIAHPINSGTRSKIQDAVLTEYHRLGELEEVEFEEAGAS,not soluble
11,MGSDKIHHHHHHMHQTLATSRKTSNACNVLALCTRDNPAILTIAHRGFWTATAENSLASVRAAVAAGVEMIEIDTQATADGRLVVIHDETLDRTTTGKGTVSALPFEVVRAAKLKAGAGGDGADVTDECVPTLEEVLEEARGRITVNIDTKFTRDLPQVMETVLRLGVEDQVLVKTDVDPEAERFEVLGSHWFGRIPHMPMFPVRKGKFAEDLRRIEALKAPMIEVKFTDIADLAEGRAEMERQNIRLWINSLDVSHCLDFNDTRALSNPEAVWGALAEAGTGAIQTDEVEAFTAWLKAGAGETGRAWTR,not soluble
12,MIDEPTGLYNRLRLQEDVSLRLQRDGALTVIAADLLPLALLNTIIRTLGYPFSNDLMLEARDRIRAELPDFTLYKISPTRFGLLLPRQQQEETESVCLRLLRAFESPVVCRGIPIKANVGLGVLPLADDTLDGDQDWLRLVVSAADDARDRGVGWARYNPPLDQAQQRLEHHHHHH,soluble
13,MGSDKIHHHHHHMSDADPKVPHRGHELLDVLARLGGSARNAQIAQVMDVSEETVRRLVKTLAKQGKVERVHGGTYLRGSQDAPMYSGALEQQPKEKTRIAKGVLELIRDGMTLFINVGSTTTYVAEQLRERRDLTIVTNSISTVASLADHNGSRVFLAGGEVSRSERGCFGRATEDFARRFAYDVLVIGADAMSPELGVLAANPREAELTRALLGNATRVIVAADYRKFSAIAPCIAAPLEAITDLVTDAAPPDALQDALDRCGVATHLAAKSGRITTRTPPPQDVGHSNTNRKTLSFPTEVS,not soluble
14,MLMNNNNVYSLNNFDFLARSFARMQAEGRPVDIQAVTGNMDEEHRDWFCKRYALYCQQATQAKRLELEH,not soluble
15,MPLPFSIISTTSQDVLEDADSDEEAETFYVNWITEKNHSFPQSMVLELEEESLVSSVKLIVHKDYPPSSLTVSLGIPSNHFRNSRGKSYNADYSVRQELSFRDDFHVEYGQKHPKATVFFNSPAKFVRISVHGFSDSDVNHHRQVSILSVIISGAGEILPFDSHLKDEPKQTEMSYIELDKGILLPLKSKPKMRETKTIVGLYDTDSEDEEILFSKEMLNRLRKREAVMKNPQLPTTSAITETIAIDTSCEKSAPVSSSSSSKQQSSVSPPLSDRSKKQILDEILGIDEKGNKGKPRKEVYFGSRMSEFNNMLRLLERKREESIWEEKYAQASAIDESVKDLKSREAGLRELIIEREDALKGKDLIAAQR,not soluble
16,MDEFIIKRAKELQGYIVEKRRDFHMYPELKYEEERTSKIVEEELKKLGYEVVRTAKTGVIGILKGKEDGKTVALRADMDALPIQEENDVPYKSRVPGKMHACGHDAHTAMLLGAAKILAEMKDELQGTVKLIFQPAEEGGLGAKKIVEEGHLDDVDAIFGIHVWAELPSGIIGIKSGPLLASADAFRVLIKGKGGHGAAPHLSIDPIALAVDLVNAYQKIISREVDPLQPAVLSVTSIKAGTTFNVIPESAEILGTIRTFDEEVRDYIVRRMKEITENFANGMRCEGKFELTIEHIPPTINNEKLANFARDVLKVLGEIREPKPTMGAEDFAFYTTKAPGLFIFLGIRNEEKGIIYPHHHPKFNVDEDILWMGAAIHSLLTYHYLSL,soluble
17,MLWPFRWVWWKRVLTSQTRAPAKPNPLTVPPTCTWWSLRKLPNPTKLDDDLKNLLDPNEVRARMLKSFGTENFTQPQPQPQALKTTTPVFGTSSGNLGSVLSGGGYHAGLKHHQSTVTRSTGEWVDR,soluble
18,MATRSCVSRGSAGSAAAGPVEAAIRAKLEQALSPEVLELRNESGGHAVPAGSETHFRVAVVSSRFEGMSPLQRHRLVHEALSEELAGPVHALAIQAKTPAQWRENPQLDISPPCLG,soluble
19,MGSDKIHHHHHHMRIAPLPPLQCLVAFESAVRHASFTKAAAELHLTQSAISRQIAQLEDFLGRSLFVREHRALRLTIAGEGYAKHVQWLLASCSEATLDVMKRYGDMELTIACSSGVAVLWLTPRLGAFRAAHPNVRIRMIVRDGLASLSPAEFDVGLYYIRQRAEPHFTARRLFDEDVYPVCSPGYLAGRVLTPAGLVHETLLVQEDGQRQWMSWSEWFRLNHVQMPASPQAVVVNHYPQLVQMAILGQGVVLGWRHMIDACLSEGLLVRATQASASHGGGYYVVSPNDRSQNQAARLFTRWVFEQAEAQMGRAAS,not soluble
